Assay results as given in patent US20070031511A1, “Method of treatment” (priority 2003, published 2007).

Tests used:
[1] = molecular target: Ggly receptor on IMGE-5 cells; test: [125I]-Ggly binding to IMGE-5 cells in the presence of 2 moles Bi3+/mole Ggly
[2] = molecular target: Ggly receptor on IMGE-5 cells; test: cell-based or functional assay

B1: glycine-extended gastrin17 (Ggly) (peptide)
peptide: XGPWLEEEEEAYGWMDFG
modifications: N-terminal pyroglutamate (Z); 125I-iodinated (IODO-GEN) in the receptor binding assay
[1]
  % inhibition of binding by bismuth ions: 50%
[2]
  ED50 (nM), proliferation of IMGE cells, thymidine uptake: 0.8 nM
